The record followed here is patent publication US20240374729A1 (published 2024).

Test [1] deals with T1, NY-ESO-1 peptide on HLA-A*02:01 (human).
T1 peptide: SLLMWITQC
As to the kind of experiment: cytokine release.

Test [2] addresses T2, PRAME peptide on HLA-A*02:01 (human).
T2 peptide: SLLQHLIGL
Description: killing.

Test [3] deals with T3, PRAME peptide on HLA-A*02:02 (human).
T3 peptide: SLLQHLIGL
Description: cytokine release.

Test [4] concerns the target T4, PRAME peptide on HLA-A*02:04 (human).
T4 peptide: SLLQHLIGL
Description: cytokine release.

In test [5] the target is T5, PRAME peptide on HLA-A*02:09 (human).
T5 peptide: SLLQHLIGL
Description: cytokine release.

B1: NY-ESO-1/LAGE-1 specific TCR of SEQ ID NOs 41 and 42 (TCR, V domains shown)
Valpha: QKEVEQNSGPLSVPEGAIASLNCTYSDRGSQSFFWYRQYSGKSPELIMFIYSNGDKEDGRFTAQLNKASQYVSLLIRDSQPSDSATYLCAADDKIIFGKGTRLHILP
Vbeta: DAGVIQSPRHEVTEMGQEVTLRCKPISGHDYLFWYRQTMMRGLELLIYFNNNVPIDDSGMPEDRFSAKMPNASFSTLKIQPSEPRDSAVYFCASSRGGSGYTFGSGTRLTVV
Regarding B1, in test [1], the binding result is reported as “recognises”.

B2: T23.8-2.1-027-004 (TCR, V domains shown)
Valpha: GQQLNQSPQSMFIQEGEDVSMNCTSSSIFNTWLWYKQDPGEGPVLLIALYKAGELTSNGRLTAQFGITRKDSFLNISASIPSDVGIYFCAGLADYGGSQGNLIFGKGTKLSVKP
Vbeta: DSGVTQTPKHLITATGQRVTLRCSPRSGDLSVYWYQQSLDQGLQFLIQYYNGEERAKGNILERFSAQQFPDLHSELNLSSLELGDSALYFCASSVWASGGYEQYFGPGTRLTVT
As to B2, the binding result in test [2], in test [3], in test [4] and in test [5] was “recognises” each time.
